B1: NCD2 (non-catalytic domain 2, a.a. 337-384 of hA3G) (other, human, UniProt Q9HC16 337-384, looked up)
chain: IMTYSEFKHCWDTFVDHQGCPFQPWDGLDEHSQDLSGRLRAILQNQEN
notes: range 337-384; not shown: N-terminal tag HA, V5, EGFP-HA or EGFP-V5, differing by experiment
B2: CD1 (catalytic domain 1, a.a. 1-143 of hA3G) (other, human, UniProt Q9HC16 1-143, looked up, not shown: small tags and cut ends)
chain: MKPHFRNTVERMYRDTFSYNFYNRPILSRRNTVWLCYEVKTKGPSRPPLDAKIFRGQVYSELKYHPEMRFFHWFSKWRKLHRDQEYEVTWYISWSPCTKCTRDMATFLAEDPKVTLTIFVARLYYFWDPDYQEALRSLCQKRD
notes: range 1-143; also called N-terminal catalytic domain
B3: CD2 (catalytic domain 2, a.a. 209-336 of hA3G) (other, human, UniProt Q9HC16 209-336, looked up)
chain: EPWVRGRHETYLCYEVERMHNDTWVLLNQRRGFLCNQAPHKHGFLEGRHAELCFLDVIPFWKLDLDQDYRVTCFTSWSPCFSCAQEMAKFISKNKHVSLCIFTARIYDDQGRCQEGLRTLAEAGAKIS
notes: also called C-terminal catalytic domain; not shown: N-terminal tag HA, V5, EGFP-HA or EGFP-V5, differing by experiment
B4: C1/2 (CD2-NCD2, a.a. 209-384 of hA3G) (other, human, UniProt Q9HC16 209-384, looked up)
chain: EPWVRGRHETYLCYEVERMHNDTWVLLNQRRGFLCNQAPHKHGFLEGRHAELCFLDVIPFWKLDLDQDYRVTCFTSWSPCFSCAQEMAKFISKNKHVSLCIFTARIYDDQGRCQEGLRTLAEAGAKISIMTYSEFKHCWDTFVDHQGCPFQPWDGLDEHSQDLSGRLRAILQNQEN
notes: Self co-IP was done with and without EGFP (±EGFP); also called C-terminal half of hA3G; not shown: N-terminal tag HA, V5, EGFP-HA or EGFP-V5, differing by experiment
B5: N1/2 (CD1-NCD1, a.a. 1-208 of hA3G) (other, human, UniProt Q9HC16 1-208, looked up)
chain: MKPHFRNTVERMYRDTFSYNFYNRPILSRRNTVWLCYEVKTKGPSRPPLDAKIFRGQVYSELKYHPEMRFFHWFSKWRKLHRDQEYEVTWYISWSPCTKCTRDMATFLAEDPKVTLTIFVARLYYFWDPDYQEALRSLCQKRDGPRATMKIMNYDEFQHCWSKFVYSQRELFEPWNNLPKYYILLHIMLGEILRHSMDPPTFTFNFNN
notes: range 1-208; Expressed in 293T cells; tested in RNase A treated cell extracts; also called N-terminal half of hA3G; not shown: N-terminal tag HA, V5, EGFP-HA or EGFP-V5, differing by experiment
B6: NCD1 (non-catalytic domain 1, a.a. 144-208 of hA3G) (other, human, UniProt Q9HC16 144-208, looked up)
chain: GPRATMKIMNYDEFQHCWSKFVYSQRELFEPWNNLPKYYILLHIMLGEILRHSMDPPTFTFNFNN
notes: range 144-208; not shown: N-terminal tag HA, V5, EGFP-HA or EGFP-V5, differing by experiment
B7: C3/4 (larger C-terminal domain lacking only CD1, a.a. 144-384 of hA3G) (other, human, UniProt Q9HC16 144-384, looked up)
chain: GPRATMKIMNYDEFQHCWSKFVYSQRELFEPWNNLPKYYILLHIMLGEILRHSMDPPTFTFNFNNEPWVRGRHETYLCYEVERMHNDTWVLLNQRRGFLCNQAPHKHGFLEGRHAELCFLDVIPFWKLDLDQDYRVTCFTSWSPCFSCAQEMAKFISKNKHVSLCIFTARIYDDQGRCQEGLRTLAEAGAKISIMTYSEFKHCWDTFVDHQGCPFQPWDGLDEHSQDLSGRLRAILQNQEN
notes: range 144-384; not shown: N-terminal tag HA, V5, EGFP-HA or EGFP-V5, differing by experiment

Assays:
[1] = target: T1, Protein A (agarose beads, no antibody) (UniProt P38507 37-477); assay: IP with Protein A beads alone
T1 construct: Bead-only control of the immunoprecipitations; also called Protein A beads
Procedure: (§1) Twenty-four hours after transfection the cells were harvested and cell extracts were analyzed by co-immunoprecipitation (co-IP). Extracts were treated with RNase A prior to IP to eliminate interactions that were due to RNA bridging.
(§2) Co-immunoprecipitation analysis. […] 24 hours after transfection cell extracts were harvested in NP-40 lysis buffer (50 mM Tris pH 7.4, 150 mM NaCl, 0.1% NP-40) with Complete® Mini EDTA free protease inhibitors (Roche). Cell extracts were treated with 40 μg/mL of RNase A for 1 hour at 37° C. and subsequently pre-cleared with Protein A agarose beads (Roche) tumbling for 1 hour at 4° C. The pre-cleared extracts were split and added to a Protein A bead slurry±V5 (Invitrogen) or GFP antibody (Clontech) for immunoprecipitation by tumbling overnight at 4° C. The beads were washed 3 times with NP-40 lysis buffer and eluted 3 times with 1×Treat (50 mM Tris pH 7.4, 10 mM DTT, 0.1% SDS).

[2] = target: the molecule itself; assay: co-IP of HA and V5 tagged forms, V5 IP, HA western
Procedure: as §1, §2

[3] = target: B6; assay: co-IP of HA and V5 tagged domains, V5 IP, HA western
Procedure: as §1, §2

[4] = target: T2, HIV-1 p55 Gag polyprotein (HIV-1, UniProt P12493 2-500); assay: V5 IP of hA3G domain, p24 western for Gag, RNase A treated 293T extracts
T2 construct: Expressed in 293T cells co-transfected with HIV-1 DNA; detected with a p24 antibody
Procedure: Co-IP experiments were performed using various hA3G domains and Gag or Vif following RNase A digestion of cell extracts.
as §2

[5] = target: the molecule itself; assay: summary of the co-IP results of Example 2
Procedure: as §1, §2

[6] = target: B2; assay: co-IP of HA and V5 tagged domains, V5 IP, HA western
Procedure: as §1, §2

[7] = target: B5; assay: as above
Procedure: as §1, §2

[8] = target: the molecule itself; assay: co-IP of HA and V5 tagged forms, V5 IP, HA western, RNase A treated 293T extracts
Procedure: as §1, §2

EGFP-HA tagged Vif = target: T3, EGFP-HA tagged Vif (HIV-1, UniProt P12504 1-192); assay: GFP antibody IP of EGFP-HA-Vif, western for the hA3G domain, RNase A treated 293T extracts
T3 construct: Expressed in 293T cells from pIRES-P; also called EGFP-HA-Vif; HIV-1 Vif; not shown: N-terminal EGFP-HA tag
T3 sequence (P12504 whole entry, the tested form may be a part): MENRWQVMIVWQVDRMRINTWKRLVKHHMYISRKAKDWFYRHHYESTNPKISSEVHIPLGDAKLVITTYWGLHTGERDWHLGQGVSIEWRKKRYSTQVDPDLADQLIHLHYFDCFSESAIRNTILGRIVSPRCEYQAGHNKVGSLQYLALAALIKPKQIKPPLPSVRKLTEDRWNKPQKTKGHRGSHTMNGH

Row | Binder | binding result [1] | binding result [2] | binding result [4] | also measured
1 | B1 | no binding | no binding |  | binding result [3]: no binding
2 | B2 | no binding | no binding | no binding | 
3 | B3 | no binding |  | no binding | binding result [5]: binds; binding result [6]: no binding
4 | B4 | no binding |  | no binding | binding result [7]: no binding; binding result [8]: binds; binding result (EGFP-HA tagged Vif): no binding
5 | B5 | no binding | no binding |  | 
6 | B6 | no binding | no binding |  | 
7 | B7 | no binding |  |  | binding result [8]: binds

Reference: patent US20100197768A1 (UNIVERSITY OF ROCHESTER, published 2010)
